From patent publication US20220289837A1 (VIB VZW, published 2022)

B1: Nanobody T2a (VHH, not shown: small tags and cut ends)
VHH: QVQLQESGGGLVQAGGSLRLSCAASGSIFRIDAMGWYRQAPGKQRELVAHSTSGGSTDYADSVKGRFTISRDNAKNTVYLQMNSLKPEDTAVYYCNADVRTRWYASNNYWGQGTQVTVSS
notes: Llama nanobody; also called Nb T2a; T2a Nb
B2: Nanobody T8 (VHH, not shown: small tags and cut ends)
VHH: QVQLQESGGGLVQPGGSLRLSCAASGSTSSINAMGWYRQAPGKQREPVAISSSGGDTRYAEPVKGRFTISRDNAQNKVYLQMNSLKPEDTAVYYCWLNWGRTSVNSWGQGTQVTVSS
notes: Llama nanobody; also called Nb T8; T8 Nb

Legend:
[1] = target: 2PT-NBD1 (human CFTR nucleotide-binding domain 1, residues 387-646, with S492P, A534P, I539T) (human, UniProt P13569 388-646, biotinylated for the ELISA (sites not given)); experiment: cell-based or functional assay
[2] = target: T1, Purified human wt-CFTR (His10-SUMO*-CFTRFLAG-EGFP), PKA phosphorylated (human, UniProt P13569 1-1480, PKA phosphorylated (sites not given)); experiment: cell-based or functional assay
[3] = target: T1, Purified human wt-CFTR …; experiment: ELISA, Twin-Strep nanobody immobilised, concentration of purified wt-CFTR varied
Source text: Quantification of at least 3 independent experiments (±SEM). (g) Immunoblot of CFTR from solubilized BHK-21 cells pulled-down with His-tagged nanobodies, including a non-CFTR nanobody as a control. Eluted nanobodies-CFTR complexes were separated by SDS-PAGE and presence of CFTR was detected with mAb 596 antibody after immunoblotting. Arrows indicate the mature (band C) and immature (band B) forms of CFTR. Representative of at least 3 independent experiments. (FIG. 4H) Flow cytometry analysis of nanobodies T2a, T8 and G3a on BHK-21 cells expressing 2PT-F508del showing increased labelling for T2a and G3a, but not T8. (FIG. 4I) Quantification of data illustrated in […]. Average of 3 independent experiments (±SEM).
Strep-Tactin XT coated microplate (iba Life Science) was coated overnight at 4° C. with Twin-Strep-tagged nanobodies (5 μg/ml). […] CFTR binding was detected with monoclonal antibodies L12B4, MM13, 154, 660, 570, 596 specific to CFTR obtained from the CFTR Antibody Distribution Program (http://cftrantibodies.web.unc.edu/available-antibodies)46 and then anti-mouse-HRP antibody (Millipore, catalogue number: AP308P, 0.5 μg/ml) for 1 h 30 min at 4° C. […] Nanobody binding was detected with Myc-tag specific antibody (Sigma, catalogue number: C3956, 0.5 μg/ml) and then anti-rabbit-HRP antibody (Cell Signaling, catalogue number: 7074S, 1:1000 dilution) for 1 h 30 min at 4° C. […]

[4] = target: T2, 2PT-F508del-CFTR expressed in BHK-21 cells (human, UniProt P13569 1-1480, I539T; S492P; A534P; F508del); experiment: flow cytometry on permeabilised BHK-21 cells expressing 2PT-F508del-CFTR, anti-tag antibody and Alexa Fluor 488 secondary
T2 construct: Full-length F508del CFTR stabilized by the three point mutations; permeabilized cells in flow cytometry
Source text: Graph depicts one representative of at least three independent experiments. (FIG. 4F) Average median fluorescence (fold over negative control) for each of the three representative nanobodies as illustrated in (FIG. 4D) and (FIG. 4E). Quantification of at least 3 independent experiments (±SEM). (g) Immunoblot of CFTR from solubilized BHK-21 cells pulled-down with His-tagged nanobodies, including a non-CFTR nanobody as a control. Eluted nanobodies-CFTR complexes were separated by SDS-PAGE and presence of CFTR was detected with mAb 596 antibody after immunoblotting. Arrows indicate the mature (band C) and immature (band B) forms of CFTR. Representative of at least 3 independent experiments. (FIG. 4H) Flow cytometry analysis of nanobodies T2a, T8 and G3a on BHK-21 cells expressing 2PT-F508del showing increased labelling for T2a and G3a, but not T8. (FIG. 4I) Quantification of data illustrated in […]. Average of 3 independent experiments (±SEM).
Parental BHK-21 cells (ATCC; CCL-10) and cells stably overexpressing human wt-CFTR^{[43,44,47]} or 2PT-F508del-CFTR, as described above, were permeabilized with 0.01% n-Dodecyl-β-D-Maltopyranoside β-DDM—Inalco) at least for 2 h on ice. In the meantime, cells were incubated with 50 μg/ml nanobodies and DRAQ7 (0.3 μM—Biostatus) to monitor the permeabilization state. Nanobody binding was detected by using His-tag specific antibody (Invitrogen, catalogue number MA1-135, 1 μg/ml) or Myc-tag specific antibody (Invitrogen, catalogue number 13-2500, 2 μg/ml) and then anti-mouse-Alexa Fluor 488 (Invitrogen, catalogue number A11001, 1.3 μg/ml) at least for 30 min on ice. Cells were washed one time between each step by centrifugation (200×g for 5 min at 4° C.). All incubations (100 μl) and washes (1.5 ml) were performed in PBS with 6% fetal bovine serum (FBS) and 0.01%13-DDM on ice. Cells fluorescence was measured with Gallios Flow Cytometer (Beckman Coulter). Data were analyzed with Kaluza software.

T1 sequence (P13569 whole entry): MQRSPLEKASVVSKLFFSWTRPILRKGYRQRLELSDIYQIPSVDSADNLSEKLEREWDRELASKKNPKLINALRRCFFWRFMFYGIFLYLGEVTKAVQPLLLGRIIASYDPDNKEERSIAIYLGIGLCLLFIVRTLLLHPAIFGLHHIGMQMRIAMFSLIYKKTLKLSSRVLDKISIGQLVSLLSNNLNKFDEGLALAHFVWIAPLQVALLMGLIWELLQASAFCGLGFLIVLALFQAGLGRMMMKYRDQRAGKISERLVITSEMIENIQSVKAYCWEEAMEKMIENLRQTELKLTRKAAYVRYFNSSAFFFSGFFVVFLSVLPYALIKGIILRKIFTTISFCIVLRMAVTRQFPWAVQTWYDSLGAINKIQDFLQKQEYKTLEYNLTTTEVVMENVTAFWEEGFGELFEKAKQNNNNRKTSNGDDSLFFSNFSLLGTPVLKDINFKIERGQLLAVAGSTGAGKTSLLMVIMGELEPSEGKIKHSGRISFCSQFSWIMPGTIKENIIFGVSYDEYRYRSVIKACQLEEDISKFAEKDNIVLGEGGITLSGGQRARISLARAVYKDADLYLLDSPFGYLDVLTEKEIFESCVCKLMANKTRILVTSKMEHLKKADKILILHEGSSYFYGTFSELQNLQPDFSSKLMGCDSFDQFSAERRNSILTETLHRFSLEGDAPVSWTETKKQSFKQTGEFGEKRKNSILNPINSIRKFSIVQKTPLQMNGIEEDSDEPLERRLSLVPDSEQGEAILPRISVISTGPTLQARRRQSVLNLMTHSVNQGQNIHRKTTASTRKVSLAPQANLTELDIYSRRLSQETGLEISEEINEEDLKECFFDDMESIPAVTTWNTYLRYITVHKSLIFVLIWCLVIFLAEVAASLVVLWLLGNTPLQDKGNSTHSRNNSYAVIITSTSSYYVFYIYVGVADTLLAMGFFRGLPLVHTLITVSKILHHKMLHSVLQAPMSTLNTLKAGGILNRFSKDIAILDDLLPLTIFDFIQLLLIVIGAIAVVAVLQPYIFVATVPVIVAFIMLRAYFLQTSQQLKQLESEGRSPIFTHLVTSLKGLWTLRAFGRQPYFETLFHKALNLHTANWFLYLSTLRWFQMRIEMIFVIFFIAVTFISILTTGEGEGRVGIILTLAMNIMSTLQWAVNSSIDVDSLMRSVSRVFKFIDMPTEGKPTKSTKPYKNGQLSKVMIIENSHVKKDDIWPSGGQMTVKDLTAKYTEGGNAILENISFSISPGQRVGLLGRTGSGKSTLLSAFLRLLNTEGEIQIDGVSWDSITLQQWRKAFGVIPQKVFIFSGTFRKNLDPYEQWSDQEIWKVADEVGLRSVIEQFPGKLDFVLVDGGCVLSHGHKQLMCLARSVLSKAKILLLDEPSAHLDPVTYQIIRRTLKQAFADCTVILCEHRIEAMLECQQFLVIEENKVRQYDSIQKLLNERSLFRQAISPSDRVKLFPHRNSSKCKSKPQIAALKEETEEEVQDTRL
T2 sequence (P13569 other isoform, or with tags, fused parts or gaps I539T/S492P/A534P/F508del): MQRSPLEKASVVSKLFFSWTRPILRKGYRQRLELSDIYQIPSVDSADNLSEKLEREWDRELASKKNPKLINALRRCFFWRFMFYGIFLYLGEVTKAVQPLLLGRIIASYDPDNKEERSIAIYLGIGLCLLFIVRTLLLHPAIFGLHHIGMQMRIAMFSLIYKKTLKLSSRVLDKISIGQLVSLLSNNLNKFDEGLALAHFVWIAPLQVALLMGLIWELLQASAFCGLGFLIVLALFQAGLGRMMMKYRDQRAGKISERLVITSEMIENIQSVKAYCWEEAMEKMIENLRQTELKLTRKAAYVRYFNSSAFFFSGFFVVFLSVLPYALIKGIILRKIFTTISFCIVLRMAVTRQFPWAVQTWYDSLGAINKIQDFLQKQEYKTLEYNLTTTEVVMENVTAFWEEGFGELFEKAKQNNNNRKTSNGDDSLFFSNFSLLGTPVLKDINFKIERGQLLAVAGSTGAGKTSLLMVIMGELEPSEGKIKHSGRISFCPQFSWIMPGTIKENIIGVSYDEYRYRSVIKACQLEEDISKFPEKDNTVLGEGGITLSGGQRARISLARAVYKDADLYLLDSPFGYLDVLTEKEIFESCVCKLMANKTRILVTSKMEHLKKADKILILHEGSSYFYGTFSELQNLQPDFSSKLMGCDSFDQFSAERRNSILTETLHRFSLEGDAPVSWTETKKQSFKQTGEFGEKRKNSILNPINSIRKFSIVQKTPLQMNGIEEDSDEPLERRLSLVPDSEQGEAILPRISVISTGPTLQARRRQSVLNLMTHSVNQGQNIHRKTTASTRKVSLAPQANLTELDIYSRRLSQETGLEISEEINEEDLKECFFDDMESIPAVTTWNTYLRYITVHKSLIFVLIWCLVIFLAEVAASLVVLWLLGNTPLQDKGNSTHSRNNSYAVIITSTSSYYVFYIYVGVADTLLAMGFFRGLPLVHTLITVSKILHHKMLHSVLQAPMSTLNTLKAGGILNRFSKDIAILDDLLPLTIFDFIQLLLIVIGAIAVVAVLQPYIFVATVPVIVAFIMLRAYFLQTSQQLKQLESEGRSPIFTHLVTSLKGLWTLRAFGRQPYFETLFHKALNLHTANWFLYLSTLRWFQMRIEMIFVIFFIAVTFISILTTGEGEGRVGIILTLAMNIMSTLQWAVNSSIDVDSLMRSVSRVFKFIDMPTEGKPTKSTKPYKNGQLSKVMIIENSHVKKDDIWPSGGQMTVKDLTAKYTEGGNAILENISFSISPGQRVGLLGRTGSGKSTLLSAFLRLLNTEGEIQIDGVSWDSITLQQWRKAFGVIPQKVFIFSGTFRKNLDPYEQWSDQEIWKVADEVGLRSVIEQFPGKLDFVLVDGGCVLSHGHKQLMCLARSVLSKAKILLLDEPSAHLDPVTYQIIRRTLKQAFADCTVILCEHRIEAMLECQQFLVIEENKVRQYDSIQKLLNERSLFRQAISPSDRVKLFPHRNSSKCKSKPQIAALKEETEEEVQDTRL
Chain of 2PT-NBD1 (human CFTR nucleotide-binding domain 1, residues 387-646, with S492P, A534P, I539T) (P13569 388-646 V470M/S492P/A534P/I539T limits assumed): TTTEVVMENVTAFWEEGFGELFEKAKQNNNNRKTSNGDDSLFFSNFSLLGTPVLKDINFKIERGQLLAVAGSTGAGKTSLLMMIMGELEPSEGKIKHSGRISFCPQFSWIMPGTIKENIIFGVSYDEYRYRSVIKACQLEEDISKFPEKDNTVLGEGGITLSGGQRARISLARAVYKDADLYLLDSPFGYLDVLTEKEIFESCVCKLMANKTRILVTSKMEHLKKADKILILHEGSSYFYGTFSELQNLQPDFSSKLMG

Row | Binder | increase of Tm (thermal shift assay, DSF) [1] [°C] | ATPase activity (% of PKA-phosphorylated CFTR) [2] [%] | EC50 (read off the curve) [3] [nM] | binding result [4]
1 | B1 | 11.2 | 50 | ~3 | binds
2 | B2 | 9.3 | 60 | ~2 | no binding
